# Patent US20240181006A1, “POLYPEPTIDES BINDING ADAMTS5, MMP13 AND AGGRECAN” (Merck Patent GmbH, priority 2017, published 2024)
# Legend:
# Assay in all cases: cell-based or functional assay
# [1] = target: cynomolgus MMP13 (activated) (cynomolgus)
# [2] = target: rat MMP13 (activated) (rat) (UniProt P23097)
# [3] = target: dog MMP13 (activated) (dog)
# [4] = target: human MMP13 (activated) (human) (UniProt P45452)
# [5] = target: bovine MMP13 (activated) (bovine) (UniProt O77656)
substance,measurement,setting,value
TIMP-2 (from UniProt P16035 27-220),"IC50, cyno fluorogenic peptide assay",[1],0.4 nM
same,"IC50, rat fluorogenic peptide assay",[2],0.4 nM
same,"IC50, dog fluorogenic peptide assay",[3],0.9 nM
same,"IC50, human collagenolytic assay",[4],0.4 nM
same,"IC50, human fluorogenic collagen assay",[4],2.4 nM
same,"IC50, human fluorogenic peptide assay",[4],0.5 nM
same,"IC50, bovine fluorogenic peptide assay",[5],1.1 nM
